Residue numbers refer to the chain shown, from its start.

The record followed here is patent publication EP3689907A1.

In assay [1] the target is human IL-17A (human) (UniProt Q16552). Nature of the assay: IL-17A/IL-17RA competitive ELISA: biotinylated hIL-17A preincubated with scFv, binding to coated hIL-17RA. On the technique in general: In an ELISA, binding on a coated surface is turned into a signal by an enzyme label.
Assay [2] shares this target. Nature of the assay: SPR (Biacore T200), direct setup: IL-17A amine-coupled to CM5 chip, scFv as analyte.
Assay [3] has the same target. Nature of the assay: IL-17A/IL-17RA competitive ELISA: biotinylated hIL-17A preincubated with scFv, binding to coated hIL-17RA; reference secukinumab.
The target is the same in assay [4]. Nature of the assay: cell-based or functional assay.
For assay [5] the target is unchanged. Description: SPR (Biacore T200), capture setup: biotinylated human IL-17A captured with Biotin-CAPture kit, scFv as analyte. Background: Surface plasmon resonance follows binding to a sensor surface in real time, without labels.

B1: PRO592 (scFv)
scFv: DIQMTQSPSSLSASVGDRVTITCQASESIYRYLSWYQQKPGKAPKLLIYLASTLTSGVPSRFSGSGSGTDFTLTISSLQPEDFATYYCQSNFGTASTTYYNTFGGGTKLTVLGGGGGSGGGGSGGGGSGGGGSEVQLVESGGGLVQPGGSLTLSCAASGFSFSGFYYMCWVRQAPGKGLEWIGCIDTGDGTTYYASWAKGRFTISRDNSKNTVYLQMNSLRAEDTAVYYCARDAAYGGYAYPAHGMDLWGPGTLVTVSS
One may read the IC50 as the point on the concentration scale where inhibition reaches its midpoint. A high value points to weaker potency. By Kd is commonly meant the concentration at which binding is half-saturated. A word on the koff: it is a measure of how fast the partners let go of each other. High values mean a short-lived complex, low ones a long-lived complex. Usually kon stands for the rate constant with which the complex forms. A lower kon goes with slow association. With B1, in assay [1], the half-maximal inhibitory concentration (IC50) was 0.9 ng/mL. Moreover, in assay [2], the equilibrium dissociation constant (Kd) was found to be 0.0376 nM, the koff was found to be 4.07e-05 s⁻¹ and the on-rate constant (kon) was determined as 1.08e+06 M⁻¹ s⁻¹. Besides, in assay [3], the rel. IC50 (IC50, secukinumab/IC50, Test Sample) stood at 40.9. In assay [4], this molecule displayed a Neutralization of IL17A in HT-29 assay, rel. IC50* (IC50, secukinumab/IC50, Test Sample) of 196; a Potency in HT-29 assay, IC50 [ng/mL] of 0.13 ng/mL; a Potency in HT-29 assay, rel. IC50* (IC50, secukinumab/IC50, Test Sample) of 196. In assay [5], the Kd was 0.367 nM, the koff turned out to be 0.000142 s⁻¹ and the on-rate constant (kon) was found to be 387000 M⁻¹ s⁻¹.

B2: PRO571 (scFv)
scFv: B1 scFv with T152R, P251Q
As for B2, in assay [1], the IC50 amounted to 1.8 ng/mL. In assay [2], the Kd turned out to be 0.0403 nM, the off-rate constant (koff) turned out to be 4.55e-05 s⁻¹ and the kon stood at 1.13e+06 M⁻¹ s⁻¹. This molecule also showed a rel. IC50 (IC50, secukinumab/IC50, Test Sample) in assay [3] of 22.9. In assay [4], this molecule gave a Neutralization of IL17A in HT-29 assay, rel. IC50* (IC50, secukinumab/IC50, Test Sample) of 191; a Potency in HT-29 assay, IC50 [ng/mL] of 0.1 ng/mL; a Potency in HT-29 assay, rel. IC50* (IC50, secukinumab/IC50, Test Sample) of 191. Further, in assay [5], the Kd came out at 0.119 nM, the off-rate constant (koff) was 0.000144 s⁻¹ and the on-rate constant (kon) worked out at 1.21e+06 M⁻¹ s⁻¹.
